We go through one substance from PMC3541276.

Test [1] has as its target rabbit muscle G-actin (rabbit) (UniProt P68135). In words: ITC; 20°C; TbCof (0.28 mM, syringe) injected into ATP-G-actin (0.028 mM, cell); ATP-G-buffer: 10 mM Tris, 0.2 mM CaCl2, 0.2 mM ATP, 2.0 mM BME, pH 7.4 (low ionic strength); one-site model.
The target is the same in test [2]. Put plainly: ITC; 20°C; TbCof (0.15 mM, syringe) injected into ADP-G-actin (0.015 mM, cell); ADP-G-buffer: 10 mM Tris, 0.2 mM CaCl2, 0.2 mM ADP, 2.0 mM BME, pH 7.4 (low ionic strength); one-site model.

As to “ADF/cofilin from Trypanosoma brucei (TbCof), His6 tag cleaved with TEV protease (natural protein)”, in test [1], the equilibrium dissociation constant (Kd) (usually the constant that tells how readily two partners part at equilibrium) turned out to be 360 nM; the dH is -3.93 kcal/mol; the stoichiometry N (usually the number of molecules, sites or subunits per partner or assembly) was determined as 1. In test [2], this substance came in with a Kd of 80 nM, a dH of -9.48 kcal/mol and a stoichiometry N of 1.
